System: MS2 coat protein
Test: apparent KD of MS2 coat protein; designed switch direction (-1 OFF switch, 1 ON switch): -1; higher = weaker reporter binding
In short: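 Each step of the titration lasted 0.8–1.5 h at the lowest concentration and 10–20 min at the highest. The protein, SNAP-549-labelled MS2 coat protein, went from 0.7 or 1.5 nM doubling to 3 µM over RNA switches transcribed on Illumina chips by stalled E. coli RNA polymerase. Normalised cluster fluorescence was curve-fitted, and the per-design median over clusters is given as apparent KD.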

[1] = input ligand: microRNA oligo, concentration not stated
[2] = Eterna round: R95, input ligand: microRNA oligo, concentration not stated
[3] = Eterna round: R95, input ligand: FMN 200 uM
[4] = Eterna round: R95, input ligand: none

## UUGGUUGUGGUAGGAUAUCCGUUGGAAACCGUCGGAGAAGGACCACAGUCACUGGGUCUUUGUCUGGUGGAGUGGAAGAACCAU [pwkr exNG1 F6.20] (Eterna round: R96, puzzle: Exclusion NG 1)
Input ligand: FMN 200 uM
  apparent KD of MS2 coat protein: 283 nM
[1]
  apparent KD of MS2 coat protein: 157 nM
Input ligand: none
  apparent KD of MS2 coat protein: 218 nM

## GUAGAGUAAGGAUAUACUGAAUAGGAUAGAAUGGUUAGAAAGUAGAAGGUACAUGAGGAUCACCCAUGUAAUGU [Excluse me!!!! 19 - Jieux - Exclusion 4] (puzzle: Exclusion 4)
[2]
  apparent KD of MS2 coat protein: 20.4 nM

## AUGGUUCGAUUAGGAUAUUAUAGAUUGAAUAGUAUGAUUUACAUGAGGAUCACCCAUGUUACAUAUAAGAAGGAAUCGAAUCAU [JR_ExcNG2_Sub087] (Eterna round: R96, puzzle: Exclusion NG 2)
[1]
  apparent KD of MS2 coat protein: 11.5 nM

## GUGGGUCCUCACGGUGCUACAUGAGGAUCACCCAUGUGGAUUGAGGAUAUCGUAACCCGACGGGACGAGAAGGCAGUUUACUGU [Ex NG3 #99] (Eterna round: R96, puzzle: Exclusion NG 3)
Input ligand: FMN 200 uM
  apparent KD of MS2 coat protein: 66.2 nM
[1]
  apparent KD of MS2 coat protein: 14.8 nM
Input ligand: none
  apparent KD of MS2 coat protein: 27.2 nM

## GAAGAAAAGGCAGGAUAUCAGAAACACAUGAUAAGGAGAUGCAACAUGAGGAUCACCCAUGUAAAUGAGAAGGGCCGCCCUUCC [Arbiis] (Eterna round: R96, puzzle: Exclusion NG 2)
[1]
  apparent KD of MS2 coat protein: 28 nM

## AAGUCGAGCGUGAGGAUAUUGACCGGACGACCCAUCGAGAAGGCACAUGAGGAUCACCCAUGUGAUUCAGCUCA [Brourd's EX4 #52] (Eterna round: R97, puzzle: Brourd's mod of Exclusion 4)
Input ligand: FMN 200 uM
  apparent KD of MS2 coat protein: 23.2 nM
Input ligand: none
  apparent KD of MS2 coat protein: 15.5 nM

## UAUUAUAAUGUAGGAUAUCUGCACGUGUAGUGCAGAGAAGGACAUGAGGAUCACCCAUGUAUAGUAGCUUCGGCUACAUUAUUU [ENG1-B3] (Eterna round: R96, puzzle: Exclusion NG 1)
Input ligand: FMN 200 uM
  apparent KD of MS2 coat protein: 90.5 nM
[1]
  apparent KD of MS2 coat protein: 61.8 nM
Input ligand: none
  apparent KD of MS2 coat protein: 71.2 nM

## AAAAAUUACAUGAGGAUCACCCAUGUAGAGUGGGAAGAGAGAUAGGAUAUGAUGUGAGAAUCAUAUCAGAAGGAUCGAGACUCA [AK ExNG3-2.1] (Eterna round: R96, puzzle: Exclusion NG 3)
Input ligand: FMN 200 uM
  apparent KD of MS2 coat protein: 129 nM
[1]
  apparent KD of MS2 coat protein: 126 nM
Input ligand: none
  apparent KD of MS2 coat protein: 119 nM

## ACAAGCUUUUAGUUCGUCUUAUACACUCCUAAUAAGAAAACAUGAGGAUCACCCAUGUAAGAAAUAAGAACUCAUGU [Sesor Array 2 - Jieux - Sensor v3, turn-off variant 2] (Eterna round: R96, puzzle: Sensor v3, turn-off variant 2)
Input ligand: FMN 200 uM
  apparent KD of MS2 coat protein: 186 nM
[1]
  apparent KD of MS2 coat protein: 297 nM
Input ligand: none
  apparent KD of MS2 coat protein: 143 nM

## GUGAUCUAUCAUGUAAUGAACAUGAGGAUCACCCAUGUAGGCAAGUUUUUUGCUCGUCACAUAAUAAGAUAGAUCAC [Antenna 19 - Jieux - Sensor, turn-off variant 1] (Eterna round: R97, puzzle: Sensor, turn-off variant 1)
Input ligand: FMN 200 uM
  apparent KD of MS2 coat protein: 14.3 nM
Input ligand: none
  apparent KD of MS2 coat protein: 13.2 nM

## GUUCGACAUGAGGAUCACCCAUGUGAGGAUAUACGAUUAGCUGCUAGGUAGUUAGUAUGUAGAAGGUGCGUGAA [EX1 #72] (Eterna round: R97, puzzle: Exclusion 1)
Input ligand: FMN 200 uM
  apparent KD of MS2 coat protein: 44 nM
Input ligand: none
  apparent KD of MS2 coat protein: 41.6 nM

## UGCAGACGAGGAUAUGAUAAAGAUCACAUGAGGAUCACCCAUGUACGCAGGAUACUGCGAUCAGAAGGCGUCUGCA [E5/1-A3] (Eterna round: R97, puzzle: Exclusion 5)
Input ligand: FMN 200 uM
  apparent KD of MS2 coat protein: 16.3 nM
Input ligand: none
  apparent KD of MS2 coat protein: 13 nM

## CCCGUGUGAGGAUAUACUCUAAGCAAUGUCAGUUGCUACAGGUAGAAGGCACAUGAGGAUCACCCAUGUCCCGG [EX4 C.24] (Eterna round: R97, puzzle: Exclusion 4)
Input ligand: FMN 200 uM
  apparent KD of MS2 coat protein: 130 nM
Input ligand: none
  apparent KD of MS2 coat protein: 241 nM

## UUUUAACAUGAGGAUCACCCAUGUGAGGAUAUCGAAAUUUAUAUUUAUAUUUAUAUUUCGAGAAGGCACAUUUU [JMF 97] (puzzle: Exclusion 1)
[2]
  apparent KD of MS2 coat protein: 131 nM

## UGAUUGUGAGGAUAUUCUGAAUAAGGCACGGGCGUCUUAUUGAAGAAGGCACAUGAGGAUCACCCAUGUGGGUU [Eternabot (L2) Solution 90] (Eterna round: R97, puzzle: Exclusion 4)
Input ligand: FMN 200 uM
  apparent KD of MS2 coat protein: 248 nM
Input ligand: none
  apparent KD of MS2 coat protein: 188 nM

## AUGCUCCGUGUAGGAUAUCGCCGUACUACUCGGCGAGAAGGACAUGAGGAUCACCCAUGUAUGUUAUUAUCACGUGUGGCGCGC [Design 49] (Eterna round: R96, puzzle: Exclusion NG 1)
Input ligand: FMN 200 uM
  apparent KD of MS2 coat protein: 45.7 nM
[1]
  apparent KD of MS2 coat protein: 14 nM
Input ligand: none
  apparent KD of MS2 coat protein: 19.7 nM

## CUCUAGUCAGGAUAUUAGUUGCCGCCUGGCAACAGGCGGCAUGAGAAGGGACUUGAGGAUCACCCAAGUAAAAG [Rabebete] (Eterna round: R97, puzzle: Exclusion 4)
Input ligand: FMN 200 uM
  apparent KD of MS2 coat protein: 66.1 nM
Input ligand: none
  apparent KD of MS2 coat protein: 368 nM

## AAAAAGCGAGGAUAUGCGGGCGGGUGCGGCCAGCCGAUGUGACAUGAGGAUCACCCAUGUAGAAGGCGCAAAAA [Excls2-VII] (puzzle: Exclusion 2)
[2]
  apparent KD of MS2 coat protein: 12.3 nM

## AAUGUGUGAGGAUAUUAAUUGCAAGCGAAUAGGCUUGUGAUUGAGAAGGCACAUGAGGAUCACCCAUGUUCCAA [JR_Ex4_Sub083] (Eterna round: R97, puzzle: Exclusion 4)
Input ligand: FMN 200 uM
  apparent KD of MS2 coat protein: 557 nM
Input ligand: none
  apparent KD of MS2 coat protein: 38.6 nM

## AGCUGUGGCCGAGGAUAUCACGACCGAUGGAAAACCAUCGGAACUCCACAUGAGGAUCACCCAUGUGAGAAGGCGGUCUCAGCA [Eli eng2 - 028] (Eterna round: R96, puzzle: Exclusion NG 2)
Input ligand: FMN 200 uM
  apparent KD of MS2 coat protein: 27.3 nM
[1]
  apparent KD of MS2 coat protein: 10.2 nM
Input ligand: none
  apparent KD of MS2 coat protein: 13.4 nM

## AGUUGGGCAGGAUAUACAUGAGGAUCACCCAUGUGAGAGAUACUAGUGAGGUCGAUUAGUAGAAGGGCCUGACA [Mat X3R4 m2] (Eterna round: R97, puzzle: Exclusion 3)
Input ligand: FMN 200 uM
  apparent KD of MS2 coat protein: 251 nM
Input ligand: none
  apparent KD of MS2 coat protein: 40.9 nM

## CUUUUGUGAGGAUAUUCGUAGUAGGGUCAUGGUACUAUUACGGAGAAGGCACAUGAGGAUCACCCAUGUACCUU [EX4 #44] (Eterna round: R97, puzzle: Exclusion 4)
Input ligand: FMN 200 uM
  apparent KD of MS2 coat protein: 25 nM
Input ligand: none
  apparent KD of MS2 coat protein: 15.8 nM

## CUGGUGUGAGGAUAUCAGGACACGCCCGCGGACGUGUCAAAUGAGAAGGCACAUGAGGAUCACCCAUGUGGGAC [Onzausin] (puzzle: Exclusion 4)
[2]
  apparent KD of MS2 coat protein: 31.7 nM

## CUUCCCAAAGGAUAUCACGGUAAUAACAUGAGGAUCACCCAUGUGCAAUUCGUGUCCCUGUGAGAAGGUUGAGAAG [Anlabe] (puzzle: Exclusion 5)
[3]
  apparent KD of MS2 coat protein: 17.9 nM
[2]
  apparent KD of MS2 coat protein: 11.1 nM
[4]
  apparent KD of MS2 coat protein: 12 nM

## GGUGGACAUGAGGAUCACCCAUGUGAGGAUAUCGGCCGGCUAGUGGCGGCUGGCUUCUCGAGAAGGCGCAUAGU [Exclusion 1 V77] (puzzle: Exclusion 1)
[2]
  apparent KD of MS2 coat protein: 37.3 nM

## AGCGCCAUCGUGAGAUGGCGUAUUACAUGAGGAUCACCCAUGUAGGAUAUCGAUUGCUUUGCAGUCGAGAAGGACAUGUCCUAG [JL ENG3 3.80 Mod F] (Eterna round: R96, puzzle: Exclusion NG 3)
Input ligand: FMN 200 uM
  apparent KD of MS2 coat protein: 38.3 nM
[1]
  apparent KD of MS2 coat protein: 23.4 nM
Input ligand: none
  apparent KD of MS2 coat protein: 27.9 nM

## GAACUAAGGCAAAGCUUUAGUCGUACAUGAGGAUCACCCAUGUAGGAUAUGGUAGGCAAAGCAUACCAGAAGGACAGAGUGAUC [Mat - Exclusion NG 3 - Mod of JL - D62] (Eterna round: R96, puzzle: Exclusion NG 3)
Input ligand: FMN 200 uM
  apparent KD of MS2 coat protein: 387 nM
[1]
  apparent KD of MS2 coat protein: 363 nM
Input ligand: none
  apparent KD of MS2 coat protein: 220 nM

## AAUUUACAUGAGGAUCACCCAUGUGAGGAUAUGGUUUCGCUGGCCGUAGCCAGUGGAACCAGAAGGCGCGUGAU [Mat - Exclusion 1 - JL Mod - D28] (Eterna round: R97, puzzle: Exclusion 1)
Input ligand: FMN 200 uM
  apparent KD of MS2 coat protein: 195 nM
Input ligand: none
  apparent KD of MS2 coat protein: 84.3 nM

## CCACUGUCAGGAUAUCGUGCAUAACGUUUACAUUUUAUGUGCGAGAAGGGACAUGAGGAUCACCCAUGUAAACG [Omei Ex4 A28PK2] (Eterna round: R97, puzzle: Exclusion 4)
Input ligand: FMN 200 uM
  apparent KD of MS2 coat protein: 206 nM
Input ligand: none
  apparent KD of MS2 coat protein: 808 nM

## GUGUAGUCAGGAUAUACAUAGGAAGAGAAGAUAAGAUAAGCACAUGAGGAUCACCCAUGUAGAAGGGACAGUGU [Excluse me!! 2 - Jieux - Exclusion 2] (puzzle: Exclusion 2)
[3]
  apparent KD of MS2 coat protein: 77.6 nM
[2]
  apparent KD of MS2 coat protein: 66.1 nM
[4]
  apparent KD of MS2 coat protein: 61 nM

## AUACUCGUAGGAUAUGGCAAGCUGAACAUGAGGAUCACCCAUGUGUUCUACAGAUCUGGGUUAGAAGGACGUUAUU [Eternabot (L2) Solution 39] (Eterna round: R97, puzzle: Exclusion 5)
Input ligand: FMN 200 uM
  apparent KD of MS2 coat protein: 49.3 nM
Input ligand: none
  apparent KD of MS2 coat protein: 59.7 nM

## ACAUGUAAUGCAGGAUAUCGGACACAUGAGGAUCACCCAUGUGACCAGAGGAAUUGCUAAGAGUCUGAGAAGGGUAUGUACAUG [Ex NG2 #52] (Eterna round: R96, puzzle: Exclusion NG 2)
Input ligand: FMN 200 uM
  apparent KD of MS2 coat protein: 23.2 nM
[1]
  apparent KD of MS2 coat protein: 12.9 nM
Input ligand: none
  apparent KD of MS2 coat protein: 19 nM

## GUAAACGUAUAGGAUAUUUCAGGUCAAAGCUGCAAAGAAGGAUACACAUGAGGAUCACCCAUGUGGUCAAUAAA [Mod of Quesina 23 - Jieux - Exclusion 6] (Eterna round: R97, puzzle: Exclusion 6)
Input ligand: FMN 200 uM
  apparent KD of MS2 coat protein: 42.2 nM
Input ligand: none
  apparent KD of MS2 coat protein: 20.4 nM

## GAUCCCAUUGUUAGGAUAUAUAGCCUAACGCGAGUGUAGAAGGGACAUGAGGAUCACCCAUGUGUGCAUUAGGG [Eternabot (L2) Solution 96] (Eterna round: R97, puzzle: Brourd's mod of Exclusion 4)
Input ligand: FMN 200 uM
  apparent KD of MS2 coat protein: 37.2 nM
Input ligand: none
  apparent KD of MS2 coat protein: 43.8 nM
